# According to IntAct's records for PubMed 28506294:
# B1: SOSS complex subunit B1 (Homo sapiens), Q9BQ15 (parent)
# chain: MTTETFVKDIKPGLKNLNLIFIVLETGRVTKTKDGHEVRTCKVADKTGSINISVWDDVGNLIQPGDIIRLTKGYASVFKGCLTLYTGRGGDLQKIGEFCMVYSEVPNFSEPNPEYSTQQAPNKAVQNDSNPSASQPTTGPSAASPASENQNGNGLSAPPGPGGGPHPPHTPSHPPSTRITRSQPNHTPAGPPGPSSNPVSNGKETRRSSKR
# Variants of: B1
# Conditions: with int3_human INTS3, Q68E01
# Sequence of int3_human INTS3, Q68E01 (Q68E01 whole entry): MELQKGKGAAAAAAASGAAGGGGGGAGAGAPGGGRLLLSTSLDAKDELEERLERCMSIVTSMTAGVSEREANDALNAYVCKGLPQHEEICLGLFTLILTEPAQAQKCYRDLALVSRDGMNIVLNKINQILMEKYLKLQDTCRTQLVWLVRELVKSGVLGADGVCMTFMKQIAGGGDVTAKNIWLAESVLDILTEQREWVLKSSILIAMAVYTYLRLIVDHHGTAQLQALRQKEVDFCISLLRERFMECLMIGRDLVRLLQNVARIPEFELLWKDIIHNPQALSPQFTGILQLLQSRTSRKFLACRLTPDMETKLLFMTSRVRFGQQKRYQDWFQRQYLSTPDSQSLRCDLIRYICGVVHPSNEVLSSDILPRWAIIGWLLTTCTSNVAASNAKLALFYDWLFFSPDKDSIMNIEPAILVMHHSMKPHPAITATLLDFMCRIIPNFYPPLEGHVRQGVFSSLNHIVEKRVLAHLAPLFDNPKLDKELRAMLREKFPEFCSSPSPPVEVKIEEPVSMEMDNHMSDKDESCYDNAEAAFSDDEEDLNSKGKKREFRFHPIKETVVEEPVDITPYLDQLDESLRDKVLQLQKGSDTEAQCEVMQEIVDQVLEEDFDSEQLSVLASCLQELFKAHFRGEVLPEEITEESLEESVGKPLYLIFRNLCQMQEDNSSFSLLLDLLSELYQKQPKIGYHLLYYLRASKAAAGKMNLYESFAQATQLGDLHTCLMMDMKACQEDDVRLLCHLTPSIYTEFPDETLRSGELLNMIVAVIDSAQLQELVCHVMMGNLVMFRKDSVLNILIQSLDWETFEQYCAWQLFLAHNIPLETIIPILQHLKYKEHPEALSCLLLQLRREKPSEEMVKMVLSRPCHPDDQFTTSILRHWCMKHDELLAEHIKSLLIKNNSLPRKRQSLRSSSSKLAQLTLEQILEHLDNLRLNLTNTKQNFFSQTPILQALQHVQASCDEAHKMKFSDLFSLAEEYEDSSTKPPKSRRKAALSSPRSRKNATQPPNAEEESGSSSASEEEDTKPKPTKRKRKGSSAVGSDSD
row,effect of a mutation on the interaction,Variant
1,disrupting interaction strength,F98A
